Starred links: 1 amine or outer side, 2 acyl side, 3 side chain; linkers in the order of their positions; H or OH if unused. Non-standard residues stand in square brackets, D forms with d. Groups on a side chain read outwards from the residue. No end group written: not given here. *: point of attachment. γGlu = O=C(O)[C@H](CCC(=O)[*:2])N[*:1]; Palmitoyl = CCCCCCCCCCCCCCCC(=O)*; αMeF = C[C@](N)(Cc1ccccc1)C(=O)O; αMeK = C[C@](N)(CCCCN)C(=O)O; αMeS = C[C@](N)(CO)C(=O)O; Aib = CC(C)(N)C(=O)O

The text below walks through data of patent US20200079833A1 (AstraZeneca / MedImmune, published 2020).

The labels stand for the following.
T1: glucose-dependent insulinotropic peptide (gastric inhibitory polypeptide) receptor (human, UniProt P48546 22-466)
T1 sequence (looked up): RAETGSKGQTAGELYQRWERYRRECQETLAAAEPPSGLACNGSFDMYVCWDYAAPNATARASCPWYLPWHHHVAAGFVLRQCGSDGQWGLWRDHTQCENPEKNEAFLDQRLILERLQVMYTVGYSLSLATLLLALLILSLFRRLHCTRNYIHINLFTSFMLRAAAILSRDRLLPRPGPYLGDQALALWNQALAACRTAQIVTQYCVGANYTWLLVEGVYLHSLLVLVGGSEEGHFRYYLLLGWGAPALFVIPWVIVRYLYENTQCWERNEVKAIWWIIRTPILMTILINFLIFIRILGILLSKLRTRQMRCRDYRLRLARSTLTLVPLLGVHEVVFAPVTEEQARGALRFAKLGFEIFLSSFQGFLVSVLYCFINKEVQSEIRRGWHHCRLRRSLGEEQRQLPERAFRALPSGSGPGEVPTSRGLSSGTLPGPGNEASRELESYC

B1: SEQ ID NO 12 (peptide)
peptide: H[Aib]EGS[αMeF]SSEVSS[αMeF]VEGEAA[αMeK]E[αMeF]VA[αMeF]VV[αMeK]GG-NH2
modifications: N-terminus assumed
SMILES: CC(C)[C@H](NC(=O)[C@H](CCC(=O)O)NC(=O)[C@H](CO)NC(=O)[C@H](CO)NC(=O)[C@](C)(Cc1ccccc1)NC(=O)[C@H](CO)NC(=O)CNC(=O)[C@H](CCC(=O)O)NC(=O)C(C)(C)NC(=O)[C@@H](N)Cc1c[nH]cn1)C(=O)N[C@@H](CO)C(=O)N[C@@H](CO)C(=O)N[C@@](C)(Cc1ccccc1)C(=O)N[C@H](C(=O)N[C@@H](CCC(=O)O)C(=O)NCC(=O)N[C@@H](CCC(=O)O)C(=O)N[C@@H](C)C(=O)N[C@@H](C)C(=O)N[C@@](C)(CCCCN)C(=O)N[C@@H](CCC(=O)O)C(=O)N[C@@](C)(Cc1ccccc1)C(=O)N[C@H](C(=O)N[C@@H](C)C(=O)N[C@@](C)(Cc1ccccc1)C(=O)N[C@H](C(=O)N[C@H](C(=O)N[C@@](C)(CCCCN)C(=O)NCC(=O)NCC(N)=O)C(C)C)C(C)C)C(C)C)C(C)C
B2: SEQ ID NO 77 (peptide)
peptide: H[Aib]EGS[αMeF]TSDV[αMeS]S[αMeF]LEGEAA[αMeK]E[αMeF]K([γGlu-Palmitoyl])A[αMeF]VV[αMeK]GG-NH2
modifications: N-terminus assumed
SMILES: CCCCCCCCCCCCCCCC(=O)N[C@@H](CCC(=O)NCCCC[C@H](NC(=O)[C@](C)(Cc1ccccc1)NC(=O)[C@H](CCC(=O)O)NC(=O)[C@](C)(CCCCN)NC(=O)[C@H](C)NC(=O)[C@H](C)NC(=O)[C@H](CCC(=O)O)NC(=O)CNC(=O)[C@H](CCC(=O)O)NC(=O)[C@H](CC(C)C)NC(=O)[C@](C)(Cc1ccccc1)NC(=O)[C@H](CO)NC(=O)[C@](C)(CO)NC(=O)[C@@H](NC(=O)[C@H](CC(=O)O)NC(=O)[C@H](CO)NC(=O)[C@@H](NC(=O)[C@](C)(Cc1ccccc1)NC(=O)[C@H](CO)NC(=O)CNC(=O)[C@H](CCC(=O)O)NC(=O)C(C)(C)NC(=O)[C@@H](N)Cc1c[nH]cn1)[C@@H](C)O)C(C)C)C(=O)N[C@@H](C)C(=O)N[C@@](C)(Cc1ccccc1)C(=O)N[C@H](C(=O)N[C@H](C(=O)N[C@@](C)(CCCCN)C(=O)NCC(=O)NCC(N)=O)C(C)C)C(C)C)C(=O)O
B3: SEQ ID NO 76 (peptide)
peptide: H[Aib]EGS[αMeF]TSDV[αMeS]S[αMeF]LEGEAA[αMeK]E[αMeF]IK([γGlu-Palmitoyl])[αMeF]VV[αMeK]GG-NH2
modifications: N-terminus assumed
SMILES: CCCCCCCCCCCCCCCC(=O)N[C@@H](CCC(=O)NCCCC[C@H](NC(=O)[C@@H](NC(=O)[C@](C)(Cc1ccccc1)NC(=O)[C@H](CCC(=O)O)NC(=O)[C@](C)(CCCCN)NC(=O)[C@H](C)NC(=O)[C@H](C)NC(=O)[C@H](CCC(=O)O)NC(=O)CNC(=O)[C@H](CCC(=O)O)NC(=O)[C@H](CC(C)C)NC(=O)[C@](C)(Cc1ccccc1)NC(=O)[C@H](CO)NC(=O)[C@](C)(CO)NC(=O)[C@@H](NC(=O)[C@H](CC(=O)O)NC(=O)[C@H](CO)NC(=O)[C@@H](NC(=O)[C@](C)(Cc1ccccc1)NC(=O)[C@H](CO)NC(=O)CNC(=O)[C@H](CCC(=O)O)NC(=O)C(C)(C)NC(=O)[C@@H](N)Cc1c[nH]cn1)[C@@H](C)O)C(C)C)[C@@H](C)CC)C(=O)N[C@@](C)(Cc1ccccc1)C(=O)N[C@H](C(=O)N[C@H](C(=O)N[C@@](C)(CCCCN)C(=O)NCC(=O)NCC(N)=O)C(C)C)C(C)C)C(=O)O
B4: SEQ ID NO 10 (peptide)
peptide: H[Aib]EGS[αMeF]TSDVSS[αMeF]VEGEAA[αMeK]E[αMeF]IA[αMeF]VV[αMeK]GG-NH2
modifications: N-terminus assumed
SMILES: CC[C@H](C)[C@H](NC(=O)[C@](C)(Cc1ccccc1)NC(=O)[C@H](CCC(=O)O)NC(=O)[C@](C)(CCCCN)NC(=O)[C@H](C)NC(=O)[C@H](C)NC(=O)[C@H](CCC(=O)O)NC(=O)CNC(=O)[C@H](CCC(=O)O)NC(=O)[C@@H](NC(=O)[C@](C)(Cc1ccccc1)NC(=O)[C@H](CO)NC(=O)[C@H](CO)NC(=O)[C@@H](NC(=O)[C@H](CC(=O)O)NC(=O)[C@H](CO)NC(=O)[C@@H](NC(=O)[C@](C)(Cc1ccccc1)NC(=O)[C@H](CO)NC(=O)CNC(=O)[C@H](CCC(=O)O)NC(=O)C(C)(C)NC(=O)[C@@H](N)Cc1c[nH]cn1)[C@@H](C)O)C(C)C)C(C)C)C(=O)N[C@@H](C)C(=O)N[C@@](C)(Cc1ccccc1)C(=O)N[C@H](C(=O)N[C@H](C(=O)N[C@@](C)(CCCCN)C(=O)NCC(=O)NCC(N)=O)C(C)C)C(C)C
B5: SEQ ID NO 11 (peptide)
peptide: H[Aib]EGS[αMeF]TSDVSS[αMeF]LEGEAA[αMeK]E[αMeF]VA[αMeF]VV[αMeK]GG-NH2
modifications: N-terminus assumed
SMILES: CC(C)C[C@H](NC(=O)[C@](C)(Cc1ccccc1)NC(=O)[C@H](CO)NC(=O)[C@H](CO)NC(=O)[C@@H](NC(=O)[C@H](CC(=O)O)NC(=O)[C@H](CO)NC(=O)[C@@H](NC(=O)[C@](C)(Cc1ccccc1)NC(=O)[C@H](CO)NC(=O)CNC(=O)[C@H](CCC(=O)O)NC(=O)C(C)(C)NC(=O)[C@@H](N)Cc1c[nH]cn1)[C@@H](C)O)C(C)C)C(=O)N[C@@H](CCC(=O)O)C(=O)NCC(=O)N[C@@H](CCC(=O)O)C(=O)N[C@@H](C)C(=O)N[C@@H](C)C(=O)N[C@@](C)(CCCCN)C(=O)N[C@@H](CCC(=O)O)C(=O)N[C@@](C)(Cc1ccccc1)C(=O)N[C@H](C(=O)N[C@@H](C)C(=O)N[C@@](C)(Cc1ccccc1)C(=O)N[C@H](C(=O)N[C@H](C(=O)N[C@@](C)(CCCCN)C(=O)NCC(=O)NCC(N)=O)C(C)C)C(C)C)C(C)C

In one experiment the target is GLP-1 receptor (human, UniProt P43220 24-463). Put plainly: cell-based or functional assay.
For the molecule B1, the “Primary assay EC50 (cAMP), Mean pM GLP-1R” value was determined as 2100 pM; the “Primary assay EC50 (cAMP), n1” value came out at 2.1 nM; the “Primary assay EC50 (cAMP), n2” value was found to be 2.1 nM.

On to B2, for which the “Primary assay EC50 (cAMP), Mean pM GLP-1R” value was determined as 1860 pM; the “Primary assay EC50 (cAMP), n1” value came out at 1.9 nM; the “Primary assay EC50 (cAMP), n2” value was 1.8 nM.

For B3, the “Primary assay EC50 (cAMP), Mean pM GLP-1R” value is 7.2 pM; the “Primary assay EC50 (cAMP), n1” value is 0.0084 nM; the “Primary assay EC50 (cAMP), n2” value was found to be 0.006 nM.

On to B4, for which the “Primary assay EC50 (cAMP), Mean pM GLP-1R” value was 90 pM; the “Primary assay EC50 (cAMP), n1” value stood at 0.087 nM; the “Primary assay EC50 (cAMP), n2” value stood at 0.093 nM.

Take B5: the “Primary assay EC50 (cAMP), Mean pM GLP-1R” value came out at 32 pM; the “Primary assay EC50 (cAMP), n1” value stood at 0.032 nM; the “Primary assay EC50 (cAMP), n2” value is 0.032 nM.

For another experiment, the target named is glucagon receptor (human, UniProt P47871 26-477). Put plainly: cell-based or functional assay.
glucagon receptor, sequence (P47871 26-477): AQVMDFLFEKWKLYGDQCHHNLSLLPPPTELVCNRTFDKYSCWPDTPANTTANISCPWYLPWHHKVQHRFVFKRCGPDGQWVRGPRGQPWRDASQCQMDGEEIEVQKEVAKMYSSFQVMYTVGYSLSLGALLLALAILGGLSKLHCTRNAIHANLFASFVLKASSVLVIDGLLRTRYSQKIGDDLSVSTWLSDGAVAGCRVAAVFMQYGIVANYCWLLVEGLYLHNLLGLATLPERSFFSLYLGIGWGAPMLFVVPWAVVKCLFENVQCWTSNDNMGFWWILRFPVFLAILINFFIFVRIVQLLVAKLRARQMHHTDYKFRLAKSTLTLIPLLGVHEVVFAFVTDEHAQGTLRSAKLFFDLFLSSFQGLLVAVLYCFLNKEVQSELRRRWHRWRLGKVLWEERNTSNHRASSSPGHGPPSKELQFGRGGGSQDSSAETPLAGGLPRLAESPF
B1: the “Primary assay EC50 (cAMP), n1” value is 10 nM and the “Primary assay EC50 (cAMP), n2” value is 13 nM.

For B2, the “Primary assay EC50 (cAMP), n1” value turned out to be 28 nM and the “Primary assay EC50 (cAMP), n2” value was 28 nM.

As for B3, the “Primary assay EC50 (cAMP), n1” value stood at 27 nM and the “Primary assay EC50 (cAMP), n2” value was determined as 27 nM.

Regarding B4, the “Primary assay EC50 (cAMP), n1” value was determined as 100 nM and the “Primary assay EC50 (cAMP), n2” value is 100 nM.

B5: the “Primary assay EC50 (cAMP), n1” value amounted to 100 nM and the “Primary assay EC50 (cAMP), n2” value amounted to 100 nM.

The next experiment has as its target T1, glucose-dependent insulinotropic …. Nature of the experiment: cell-based or functional assay.
For B1, the “Primary assay EC50 (cAMP), n1” value was 45 nM and the “Primary assay EC50 (cAMP), n2” value was 45 nM.

Turning to B2, the “Primary assay EC50 (cAMP), n1” value is 28 nM and the “Primary assay EC50 (cAMP), n2” value came out at 28 nM.

Consider B3, for which the “Primary assay EC50 (cAMP), n1” value amounted to 27 nM and the “Primary assay EC50 (cAMP), n2” value was determined as 27 nM.

For the molecule B4, the “Primary assay EC50 (cAMP), n1” value stood at 100 nM and the “Primary assay EC50 (cAMP), n2” value stood at 100 nM.

As for B5, the “Primary assay EC50 (cAMP), n1” value is 100 nM and the “Primary assay EC50 (cAMP), n2” value was found to be 100 nM.
